Data as given in publication PMC11898274, “Interleukin-34 orchestrates bone formation through its binding to bone morphogenic proteins” (Theranostics, 2025).
One block for each binder: values may come before it.

What was measured:
[1] = target: T1, Recombinant human interleukin-34 (IL34) (human, UniProt Q6ZMJ4 21-242); assay: SPR; BMP2, BMP4 or BMP7 immobilised (1500-2300 RU) on CM5-S chip by amine coupling at pH 4.5; IL34 injected in one cycle titration (12.5-200 nM, 60 s, 100 µL/min), 600 s dissociation; T200, 25 °C, PBS pH 7.4 with 0.05% P20; bivalent fitting model; conditions: both partners purified
T1 construct: Interleukin-34, human, recombinant; source: bought: R&D Systems
T1 sequence (looked up): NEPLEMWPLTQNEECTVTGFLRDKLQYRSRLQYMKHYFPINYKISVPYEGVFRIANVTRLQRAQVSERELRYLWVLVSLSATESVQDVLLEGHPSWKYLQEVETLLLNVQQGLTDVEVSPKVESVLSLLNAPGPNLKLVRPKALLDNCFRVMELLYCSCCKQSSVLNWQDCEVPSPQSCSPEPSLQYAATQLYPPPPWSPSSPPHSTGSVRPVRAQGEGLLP

[2] = target: T1, Recombinant human interleukin-34 (IL34); assay: SPR; receptors captured on immobilized anti-human Fc; IL34 injected (18.75, 37.5, 75, 150, 300 nM); T200, 25 °C, PBS pH 7.4 with 0.05% P20; steady-state fitting model; conditions: both partners purified
[3] = target: T2, Recombinant human bone morphogenetic protein 2 (BMP2) (human, UniProt P12643 283-396); assay: SPR
T2 chain: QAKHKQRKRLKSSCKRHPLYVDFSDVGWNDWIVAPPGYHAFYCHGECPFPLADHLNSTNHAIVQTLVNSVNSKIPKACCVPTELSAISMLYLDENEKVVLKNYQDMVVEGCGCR

[4] = target: T3, Recombinant human bone morphogenetic protein 4 (BMP4) (human, UniProt P12644 293-408); assay: SPR
T3 chain: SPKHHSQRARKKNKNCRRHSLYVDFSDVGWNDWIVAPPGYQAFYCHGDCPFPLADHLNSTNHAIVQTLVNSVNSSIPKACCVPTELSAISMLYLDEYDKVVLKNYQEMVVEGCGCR

[5] = target: T4, Recombinant human bone morphogenetic protein 7 (BMP7) (human, UniProt P18075 293-431); assay: SPR
T4 chain: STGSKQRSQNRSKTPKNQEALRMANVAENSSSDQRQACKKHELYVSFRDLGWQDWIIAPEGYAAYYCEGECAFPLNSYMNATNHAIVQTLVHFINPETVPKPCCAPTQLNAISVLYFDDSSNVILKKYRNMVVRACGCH

B2: Human Activin RIIB receptor (ActRIIB) (Fc fusion, UniProt Q13705 19-137, looked up)
chain: SGRGEAETRECIYYNANWELERTNQSGLERCEGEQDKRLHCYASWRNSSGTIELVKKGCWLDDFNCYDRQECVATEENPQVYFCCCEGNFCNERFTHLPEAGGPEVTYEPPPTAPTLLT
notes: Activin receptor type-2B, human recombinant; source: bought: R&D Systems
binding result [2]: binds

B4: Recombinant human bone morphogenetic protein 4 (BMP4) (ligand, UniProt P12644 293-408, looked up)
chain: T3 chain
notes: Bone morphogenetic protein 4, human, recombinant; source: bought: R&D Systems
Kd [1]: 426 nM

B5: Recombinant human bone morphogenetic protein 2 (BMP2) (ligand, UniProt P12643 283-396, looked up)
chain: T2 chain
notes: Bone morphogenetic protein 2, human, recombinant; source: bought: R&D Systems
Kd [1]: 363 nM

Next, values leading:

Kd [1]: 922 nM
B1: Recombinant human bone morphogenetic protein 7 (BMP7) (ligand, UniProt P18075 293-431, looked up)
chain: T4 chain
notes: Bone morphogenetic protein 7, human, recombinant; source: bought: R&D Systems

koff [3]: 0.0229 s⁻¹
koff [4]: 0.0467 s⁻¹
koff [5]: 0.0561 s⁻¹
B3: Recombinant human interleukin-34 (IL34) (ligand)
chain: T1 sequence (looked up)
